Results: the RNAGym collection of RNA variant scans (doi:10.7554/elife.90254)

B1: OR4K15 (parent)
chain: GUUAACGGUCAUAGGCCAUGGAAACUAGGAGCACCAUUUCGCUGCCAGUGAAGAAAUGAACAAAGAAAAUCUGGGCCAGGCAGGCAUCAAAAGAAAUAGUCUUGCGCUCAACCAGAAAGUCUGUAAUCAUUUUAAGGGUA

Variants of: B1
Assay: self-cleavage, relative activity (ratio to wild type); higher = more cleavage; in vitro, sequencing; the parent is a self-cleaving ribozyme

Variant	self-cleavage
U19A A114U	0.04
U19A A114G	0.55
A18C A117G	1.24
U19G A64G	1.49
A18G C40U	1.66
U19G A24G	1.16
U19A A69G	1.14
A18U A117U	0.76
A18G A110G	0.21
U19A A117U	0.55
U19A A117G	1.57
A18U U127A	2.41
U19C U132C	1.24
U19A G53A	1.39
A18G A54G	0.96
A18G A54U	1.25
U19A A98G	0.5
A18U A111U	0.12
A18U A111G	0.03
A18G A36U	1.39
A18C U19C	1.5
A18U A60G	0.68
G20A A66G	1.21
U19C U124C	0.87

Variant	self-cleavage
A18G G75C	0.16
G20U U72C	0.14
A18U A67G	1.53
U19A G75C	0.16
A18G A126G	0.8
A18U A92U	1.25
U19C U72C	0.25
A18G A86G	1.99
A18U A52U	1.6
A18U A94U	1.11
U19C A54C	1.2
U19C A54G	1.21
A18C U131C	0.73
U19C U103C	0.66
A18U U102C	0.98
A18G A125G	0.94
A18C A62G	1.36
A18C A62C	1.25
A18G A47G	1.14
A18G G83A	1.54
A18U U108C	0.01
A18G C101A	0.06
U19C A98G	0.25
U19C A82U	0.21

Variant	self-cleavage
A18U A98C	1.13
U19C A67G	1.04
U19C A67U	1.67
A18G U70C	0.57
U19C C121A	2.88
U19C A27G	0.89
A18U U133A	1.57
A18U	1.11
A18G	1.16
A18C	0.89
U19A A118G	0.88
U19C A111G	0.03
G20A A56G	1.66
A18U A47U	0.78
A18G A67G	1.03
A18G A67U	1.79
U19C A96G	1.8
U19C A96U	1.51
U19C A96C	0.69
U19C A94G	1.53
G20A U49A	1.67
U19C A51G	0.51
A18G U100C	2.34
U19A A22G	1.09

Variant	self-cleavage
A18G A91G	1.41
G20A A27C	1.93
C17U U38C	1.28
U19A A126C	0.55
U19A A126G	1.38
C17U U87A	1.37
C17U U87C	0.7
A18U C113A	0.05
A18C A60G	2.54
A18U A24U	1.36
U19A A55G	1.79
U19A U87C	0.97
G20C	1.88
G20A	1.55
G20U	1.53
U19C A91U	1.37
U19A A94G	1.89
U19C A118C	1.15
U19C A118U	0.77
U19C G83A	1.68
U19C G31A	0.83
U19C G31U	1.29
A18U U72C	0.1
U19C A55U	1.69

Variant	self-cleavage
U19C A55C	1.89
U19A A86G	2.13
A18U G104A	0.05
U19A G48A	1.35
A18U C105U	0.28
A18G A69U	1.94
G20A A64G	1.49
A18G A118C	0.27
A18G A118G	1.34
A18G A94G	1
U19G A140G	1.51
U19A A63G	1.59
A18U G58A	1.09
U19G A23G	0.83
U19C C40U	1.67
A18G G115U	0.14
A18G G65U	1.18
A18U A55G	1.85
A18U A55U	1.49
G20U A94U	2.23
A18G G73U	0.23
A18U A56G	1.48
A18G A33G	0.97
A18G U38C	0.46

Variant	self-cleavage
A18G U38A	1.27
U19C A30G	0.94
A18G G93U	2.69
A18U U100C	2.18
U19A U102C	1.65
A18G U122A	0.94
U19A C77U	1.25
U19A U124C	0.9
A18U A91G	1.16
A18U A91U	1.96
A18C A22U	1.71
A18C A22G	1.85
A18C A23G	0.81
A18G U130G	1.61
A18G U130A	1.84
A18G U130C	1.01
U19C C61U	1.56
U19A A82U	0.34
U19A U122C	0.71
A18G G80U	0.14
A18C A118G	1.22
U19C G44A	0.78
U19C A86U	1.8
G20A A95U	1.89

Variant	self-cleavage
U19C G74C	0.18
U19A A78G	0.31
A18G A22G	1.01
A18G A22U	1.95
A18G G53U	1.66
U19A A111U	0.09
A18G A52G	1.67
A18G A52U	1.21
U19C G137A	0.95
U19C G119A	2.13
U19A U127C	0.92
A18C G28U	1.37
G20A U102A	0.58
U19A A116C	0.09
U19A A116U	0.43
A18G U139A	1.83
U19C A110C	0.16
U19C A110G	0.08
A18G A23G	1.01
U19A A140G	1.75
A18U A23U	1.88
A18U A23G	1.26
A18G U120A	2.34
A18G U120C	1.16

Variant	self-cleavage
U19C G75C	0.17
U19C G75A	0.23
A18G A62U	2.16
A18G A62G	1.54
U19A A89U	0.85
G21A A27U	1.32
A18G U124A	0.9
A18G U124G	0.94
U19G A33G	0.96
A18U C128U	1.55
U19C A92G	1.53
U19A A90G	0.53
U19A A36G	1.19
A18C A82G	0.44
U19A U49C	1.38
A18G C61U	1.18
A18U U38A	1.02
A18G U103C	1.04
U19C U26C	1.24
A18G U87A	1.14
A18G U87C	1.27
A18G U132G	1.71
U19G C105G	0.05
A18G C85U	0.98

Variant	self-cleavage
U19C U97C	1.5
U19C U97A	1.34
A18U A90G	0.53
A18U A116U	0.15
A18U A116G	0.63
A18G C46U	1.34
A18G U108C	0.02
A18G U108A	0.03
A18G A51G	1.86
A18G A51U	1.15
U19C U43A	2.04
A18U A86G	1.01
U19C A114U	0.11
U19C A114G	0.39
U19A U26C	2.12
A18C C71U	0.35
U19C U120C	0.77
U19C A140U	1.21
U19A A33G	0.62
U19A A52G	1.35
G20U U39A	1.57
A18U U70A	1.35
U19C A52U	0.93
A18G A134G	1.8

Variant	self-cleavage
U19C U133C	2.01
U19A A91G	1.06
U19A A91C	1.85
U19A U120G	1.35
G20U U122A	2.45
G20A A117G	0.65
U19A A54U	1.8
U19A A54G	1.15
A18G A117U	1.01
A18G A68U	1.33
U19C A62C	1.65
U19C A62G	0.83
A18U A126G	1.86
U19C U102G	0.78
U19C U102C	2.32
A18G U57A	1
U19C A59G	1.55
U19C A59U	0.81
A18U U120C	1.1
U19A G44A	2.16
A18G U49C	1.43
A18C U87C	0.67
A18G C109U	0.82
A18G C109A	0.34

Variant	self-cleavage
U19A C109U	0.16
A18G A78U	0.35
A18C C113U	0.12
U19C A66G	1.62
U19C A66U	0.38
U19C C76U	0.14
G20U U37C	1.37
U19C A78G	0.29
U19G A67G	1.1
U19A U131G	2.03
U19A U131C	1.46
U19C A64U	1.45
U19C A64G	1.09
U19G	1.18
U19C	1.17
U19A	1.16
U19C A33G	0.62
U19C A117C	0.71
U19C A117U	0.58
U19C U108C	0.02
U19C U108A	0.03
U19C U49C	1.6
U19C U49A	1.38
U19C U70A	1.06

Variant	self-cleavage
U19C U70C	0.7
U19A A23G	1.28
U19C G93U	1.5
A18G A116G	1.17
A18G A116U	0.75
U19C A129U	1.39
G20A A92U	0.79
G20A A92G	2.46
G20U U70C	0.6
A18C A54G	0.89
U19C U37C	1.5
A18U A114U	0.08
A18U A114C	0.03
U19A A96U	1.41
A18G A24C	0.96
A18G A82G	0.98
G20A A69G	1
U19A A59G	1.12
G20U A47G	1.08
U19C A22G	1.12
U19C A22U	1.23
U19A U130C	0.95
U19G A69U	0.96
C17U U37C	1

Variant	self-cleavage
G20A A118G	0.79
A18U A27G	1.13
A18G C32U	1.17
U19C A60G	1.23
A18G A96G	1.44
A18G A96U	1.84
A18G A96C	1.68
U19C C85G	1.02
U19C A126G	1.48
A18U U37G	1.12
U19G A110G	0.2
U19C G48A	1.61
A18G U19G	0.71
A18G A114C	0.05
U19C A135U	1.5
U19C A135G	2.08
A18U A96U	1.88
A18U A96G	1.62
A18U A30U	1.57
A18G A111G	0.03
U19A A62G	1.32
A18U G48U	1.24
A18U A66G	1.5
A18U A66C	1.22

Variant	self-cleavage
G20A A91U	2.07
U19G G115A	0.38
U19A A56G	1.6
A18U U49A	1.67
A18U U49C	1.47
A18G C42G	1.02
G20A A24G	0.1
A18G A89U	1.48
A18U U39A	1.05
A18U U39C	1.81
A18U U39G	0.98
U19A U100C	1.68
A18G U97C	1.42
U19C A125U	2.21
U19C C113U	0.08
U19C U38C	1.22
U19A G137U	1.52
U19A U133C	1.73
U19C U39A	2.15
A18G A60G	0.97
U19C A90U	1.49
U19C A90G	1.39
